Experimental data as given in patent US20200164014A1, “MESENCHYMAL STEM CELL ATTRACTING AGENT” (Shiseido Company, Ltd., priority 2017, published 2020).

B1: RSPO4: R-spondin family, member 4, purchased protein, candidate aging factor (protein, UniProt Q2I0M5 20-234, looked up)
R-spondin-4: LNRRKKQVGTGLGGNCTGCIICSEENGCSTCQQRLFLFIRREGIRQYGKCLHDCPPGYFGIRGQEVNRCKKCGATCESCFSQDFCIRCKRQFYLYKGKCLPTCPPGTLAHQNTRECQGECELGPWGGWSPCTHNGKTCGSAWGLESRVREAGRAGHEEAATCQVLSESRKCPIQRPCPGERSPGQKKGRKDRRPRKDRKLDRRLDVRPRQPGLQP
B2: IGFBP7: insulin-like growth factor binding protein 7, purchased protein, candidate aging factor (protein, UniProt Q16270 27-282, looked up)
Insulin-like growth …: SSSDTCGPCEPASCPPLPPLGCLLGETRDACGCCPMCARGEGEPCGGGGAGRGYCAPGMECVKSRKRRKGKAGAAAGGPGVSGVCVCKSRYPVCGSDGTTYPSGCQLRAASQRAESRGEKAITQVSKGTCEQGPSIVTPPKDIWNVTGAQVYLSCEVIGIPTPVLIWNKVKRGHYGVQRTELLPGDRDNLAIQTRGGPEKHEVTGWVLVSPLSKEDAGEYECHASNSQGQASASAKITVVDALHEIPVKKGEGAEL

Test system: young fibroblasts
Experiment: Addition of aging factor proteins to young fibroblasts, quantitative RT-PCR
Assay type: cell-based
Conditions: protein added at 10 μg/ml vs 0 μg/ml, cultured 2 days
Method: Dermal fibroblasts collected from the back skin of an adult were cultured in Dulbecco's Modified Eagle Medium supplemented with 10% FBS. As normal fibroblasts (young fibroblasts), cells with a culture period of less than 1 month and a Pdl<30 were used. The same cells were cultured for 3 months or more and slowly proliferating cells (having a doubling time of less than 0.5/week and a Pdl>50) were used as the senescent fibroblasts. Normal fibroblasts were seeded in the upper layer of a six-well Transwell system (Falcon; Franklin Lakes, N.J.) filled with Dulbecco's Modified Eagle Medium supplemented with 10% FBS to a density of 1250 cells/cm^2. Sub-constructed senescent fibroblasts and normal fibroblasts were each seeded in two wells of the lower layer of the Transwell system. After combining the upper layer and the lower layer of the Transwell system for 2 days under a humidified atmosphere at 37° C. and 5% CO2, the cells in the upper layer and the cells in the lower layer were recovered using Qiazole (Qiagen).
From the recovered cell lysate, RNA was extracted using an RNeasy Protect Kit (Qiagen) according to the product description and […] into cDNA using Superscript VILO (Invitrogen) according to the product description. Real time PCR was performed on LightCycler (Roche) using […] as an internal standard and using primer pairs for the following genes. The cycle threshold (Ct value) calculated using Lightcycler software ver. 3.5 was normalized for each sample GAPDH mRNA.
Proteins of the candidate aging factors (IGFBP 7 and RSPO 4) (purchased from Serotec, R&D SYSTEMS) were added to a medium for culturing young fibroblasts at concentrations of 0 μg/ml and 10 μg/ml, cultured for 2 days, and the cells were collected using Qiazole (Qiagen). The recovered cell lysate was examined for the expression levels of MMP1 and collagen in the same manner as described above for quantitative RT-PCR. IGFBP7 and RSPO4 reduced the expression of collagen and increased the expression of MMP1.

Molecule	expression of MMP1	expression of collagen
B1	increased	reduced
B2	increased	reduced
